According to publication PMC6900284:

Molecular target: CPSF160;WDR33;CPSF30;Fip1 (human;human;human;human, UniProt Q10570;Q9C0J8;O95639-3;Q6UN15-4 1-1443;1-410;1-178;130-195, |||)
Assay: cryo-EM structure

CPSF160;WDR33;CPSF30;Fip1, sequence (Q10570 whole entry, chain 1 of 4): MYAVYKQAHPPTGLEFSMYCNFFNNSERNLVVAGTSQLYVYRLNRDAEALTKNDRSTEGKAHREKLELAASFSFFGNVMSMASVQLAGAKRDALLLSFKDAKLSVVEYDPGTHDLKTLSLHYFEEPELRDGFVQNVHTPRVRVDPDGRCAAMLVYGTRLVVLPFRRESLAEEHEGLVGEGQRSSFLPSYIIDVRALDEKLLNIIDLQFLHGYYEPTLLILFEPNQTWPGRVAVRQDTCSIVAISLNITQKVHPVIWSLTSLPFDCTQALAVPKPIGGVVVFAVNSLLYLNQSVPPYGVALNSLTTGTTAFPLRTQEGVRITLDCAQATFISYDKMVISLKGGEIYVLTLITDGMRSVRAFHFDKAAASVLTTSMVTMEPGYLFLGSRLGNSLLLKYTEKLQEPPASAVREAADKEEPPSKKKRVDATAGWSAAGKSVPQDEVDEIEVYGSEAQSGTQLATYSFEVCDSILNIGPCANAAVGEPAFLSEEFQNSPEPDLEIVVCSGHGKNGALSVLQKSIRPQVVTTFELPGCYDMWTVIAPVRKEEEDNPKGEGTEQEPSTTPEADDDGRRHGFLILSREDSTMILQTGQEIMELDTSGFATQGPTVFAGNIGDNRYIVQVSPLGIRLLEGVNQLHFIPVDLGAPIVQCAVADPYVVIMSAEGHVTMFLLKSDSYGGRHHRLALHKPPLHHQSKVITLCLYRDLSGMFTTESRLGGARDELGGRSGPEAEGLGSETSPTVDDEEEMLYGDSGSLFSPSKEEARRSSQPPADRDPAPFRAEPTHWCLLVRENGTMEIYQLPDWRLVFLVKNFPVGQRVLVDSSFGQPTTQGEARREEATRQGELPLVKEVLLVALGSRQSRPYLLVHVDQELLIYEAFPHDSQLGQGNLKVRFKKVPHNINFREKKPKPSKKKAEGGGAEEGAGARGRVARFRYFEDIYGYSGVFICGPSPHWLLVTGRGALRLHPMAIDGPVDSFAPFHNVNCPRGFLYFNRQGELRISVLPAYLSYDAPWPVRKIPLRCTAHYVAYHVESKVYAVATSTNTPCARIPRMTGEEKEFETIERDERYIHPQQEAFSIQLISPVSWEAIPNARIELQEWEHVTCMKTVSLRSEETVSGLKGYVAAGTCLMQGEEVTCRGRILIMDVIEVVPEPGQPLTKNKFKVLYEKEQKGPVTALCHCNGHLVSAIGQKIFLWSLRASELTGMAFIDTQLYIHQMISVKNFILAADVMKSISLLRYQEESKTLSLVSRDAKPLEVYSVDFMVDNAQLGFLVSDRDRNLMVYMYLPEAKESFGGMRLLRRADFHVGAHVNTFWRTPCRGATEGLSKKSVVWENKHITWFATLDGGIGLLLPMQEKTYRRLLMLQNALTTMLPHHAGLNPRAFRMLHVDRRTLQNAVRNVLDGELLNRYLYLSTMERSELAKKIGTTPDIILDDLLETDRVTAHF
CPSF160;WDR33;CPSF30;Fip1, sequence (Q9C0J8 1-410, chain 2 of 4): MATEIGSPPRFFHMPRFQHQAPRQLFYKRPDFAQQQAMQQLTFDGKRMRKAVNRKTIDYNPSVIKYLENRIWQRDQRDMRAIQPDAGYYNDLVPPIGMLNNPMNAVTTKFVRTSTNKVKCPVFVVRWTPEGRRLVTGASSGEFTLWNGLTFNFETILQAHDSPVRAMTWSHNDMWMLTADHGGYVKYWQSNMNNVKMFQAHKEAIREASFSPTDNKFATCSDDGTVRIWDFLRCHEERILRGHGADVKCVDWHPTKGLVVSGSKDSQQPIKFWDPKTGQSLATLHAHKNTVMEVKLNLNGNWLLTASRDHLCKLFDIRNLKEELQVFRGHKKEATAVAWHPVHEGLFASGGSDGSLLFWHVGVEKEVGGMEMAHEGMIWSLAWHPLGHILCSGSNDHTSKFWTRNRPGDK
CPSF160;WDR33;CPSF30;Fip1, sequence (O95639 1-178, chain 3 of 4): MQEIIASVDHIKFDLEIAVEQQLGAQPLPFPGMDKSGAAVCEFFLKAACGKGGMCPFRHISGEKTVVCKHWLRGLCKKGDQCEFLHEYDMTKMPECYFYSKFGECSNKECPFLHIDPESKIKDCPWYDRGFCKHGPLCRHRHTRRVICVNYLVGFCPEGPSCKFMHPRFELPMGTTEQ
CPSF160;WDR33;CPSF30;Fip1, sequence (Q6UN15 145-210, chain 4 of 4): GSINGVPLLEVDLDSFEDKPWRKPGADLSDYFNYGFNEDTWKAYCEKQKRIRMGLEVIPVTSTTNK

Binder: ACAAUAAAGG (ssRNA) [10-mer PAS RNA]
- binding result: binds
